The target of the test is T1, GST-AIPL1 (Homo sapiens (Human), UniProt Q9NZN9).
T1 chain: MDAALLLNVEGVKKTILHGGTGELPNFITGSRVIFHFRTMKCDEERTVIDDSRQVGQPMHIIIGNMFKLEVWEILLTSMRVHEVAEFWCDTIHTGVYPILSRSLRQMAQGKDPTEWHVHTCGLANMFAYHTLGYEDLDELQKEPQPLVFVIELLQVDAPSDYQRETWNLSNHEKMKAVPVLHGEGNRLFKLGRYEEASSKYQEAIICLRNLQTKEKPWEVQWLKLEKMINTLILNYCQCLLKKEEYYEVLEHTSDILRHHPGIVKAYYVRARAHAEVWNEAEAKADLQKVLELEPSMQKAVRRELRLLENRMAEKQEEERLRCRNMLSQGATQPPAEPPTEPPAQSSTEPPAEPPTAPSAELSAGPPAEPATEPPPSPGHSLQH
The test is described as follows: GST pull-down.

B1: His6-FAT10, recombinant purified (protein)
chain: MAPNASCLCVHVRSEEWDLMTFDANPYDSVKKIKEHVRSKTKVPVQDQVLLLGSKILKPRRSLSSYGIDKEKTIHLTLKVVKPSDEELPLFLVESGDEAKRHLLQVRRSSSVAQVKAMIETKTGIIPETQIVTCNGKRLEDGKMMADYGIRKGNLLFLACYCIGG
B1: the binding result is “binds”.

For the origin of these results see publication PMC3274541 (2012).
